Assay results published in the supplement of paper PMC9112550, “Optimization of the antimicrobial peptide Bac7 by deep mutational scanning” (BMC Biology, 2022).

System: Escherichia coli TOP10
Assay: shrunken log2 fold change of peptide-encoding DNA abundance (4.5 h post-induction vs induction); higher = less antimicrobial activity (less host growth inhibition)
Details: time post-induction: 4.5 h; library: site-saturation at positions 5, 18, 19, 20
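Further: peptides expressed intracellularly from a pBAD plasmid library in pooled LB shake-flask culture, induced with 0.3% L-arabinose, DNA abundance read by NGS, three biological replicates, DESeq2 with apeglm shrinkage.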

Row | Sequence | shrunken log2 fold change
1 | RRIRVRPPRLPRPRPRPTGVPRP | 0.0149
2 | RRIRVRPPRLPRPRPRPTHSPRP | 0.156
3 | RRIRVRPPRLPRPRPRPTIMPRP | -0.411
4 | RRIRVRPPRLPRPRPRPTIVPRP | -0.497
5 | RRIRVRPPRLPRPRPRPTMNPRP | -0.353
6 | RRIRVRPPRLPRPRPRPTMRPRP | 0.799
7 | RRIRVRPPRLPRPRPRPTMVPRP | 0.0376
8 | RRIRVRPPRLPRPRPRPTNTPRP | -0.175
9 | RRIRVRPPRLPRPRPRPTPIPRP | 0.186
10 | RRIRVRPPRLPRPRPRPTSPPRP | 0.0262
11 | RRIRVRPPRLPRPRPRPTSQPRP | 0.00273
12 | RRIRVRPPRLPRPRPRPTTLPRP | -0.111
13 | RRIRVRPPRLPRPRPRPTTQPRP | 0.0531
14 | RRIRVRPPRLPRPRPRPTVHPRP | -0.0675
15 | RRIRVRPPRLPRPRPRPTWKPRP | -0.0442
16 | RRIRVRPPRLPRPRPRPTWSPRP | 0.0201
17 | RRIRVRPPRLPRPRPRPTYAPRP | 0.141
18 | RRIRVRPPRLPRPRPRPTYLPRP | 0.00624
19 | RRIRVRPPRLPRPRPRPTYNPRP | -0.769
20 | RRIRVRPPRLPRPRPRPVALPRP | 0.0693
21 | RRIRVRPPRLPRPRPRPVCCPRP | 0.0608
22 | RRIRVRPPRLPRPRPRPVCVPRP | -0.0658
23 | RRIRVRPPRLPRPRPRPVGWPRP | 0.77
24 | RRIRVRPPRLPRPRPRPVIPPRP | -0.0964
25 | RRIRVRPPRLPRPRPRPVKFPRP | -0.133

Row | Sequence | shrunken log2 fold change
26 | RRIRVRPPRLPRPRPRPVLMPRP | 0.107
27 | RRIRVRPPRLPRPRPRPVPMPRP | 0.0779
28 | RRIRVRPPRLPRPRPRPVPTPRP | 0.149
29 | RRIRVRPPRLPRPRPRPVQHPRP | -0.0336
30 | RRIRVRPPRLPRPRPRPVQSPRP | -0.104
31 | RRIRVRPPRLPRPRPRPVRFPRP | 0.391
32 | RRIRVRPPRLPRPRPRPVRSPRP | 0.522
33 | RRIRVRPPRLPRPRPRPVSAPRP | -0.141
34 | RRIRVRPPRLPRPRPRPVSSPRP | 0.105
35 | RRIRVRPPRLPRPRPRPVTEPRP | -0.164
36 | RRIRVRPPRLPRPRPRPVTNPRP | -0.68
37 | RRIRVRPPRLPRPRPRPVTQPRP | 0.12
38 | RRIRVRPPRLPRPRPRPVVQPRP | -0.039
39 | RRIRVRPPRLPRPRPRPVWEPRP | 0.0761
40 | RRIRVRPPRLPRPRPRPVWIPRP | -0.206
41 | RRIRVRPPRLPRPRPRPVWKPRP | 0.0859
42 | RRIRVRPPRLPRPRPRPVYDPRP | -0.182
43 | RRIRVRPPRLPRPRPRPWDMPRP | -0.184
44 | RRIRVRPPRLPRPRPRPWDWPRP | 0.163
45 | RRIRVRPPRLPRPRPRPWEAPRP | 0.268
46 | RRIRVRPPRLPRPRPRPWEKPRP | 0.0403
47 | RRIRVRPPRLPRPRPRPWEQPRP | -0.355
48 | RRIRVRPPRLPRPRPRPWERPRP | 0.153
49 | RRIRVRPPRLPRPRPRPWFNPRP | -0.437
50 | RRIRVRPPRLPRPRPRPWGQPRP | -0.191

Row | Sequence | shrunken log2 fold change
51 | RRIRVRPPRLPRPRPRPWLTPRP | -0.147
52 | RRIRVRPPRLPRPRPRPWMFPRP | -0.673
53 | RRIRVRPPRLPRPRPRPWMRPRP | 0.731
54 | RRIRVRPPRLPRPRPRPWMTPRP | -0.0714
55 | RRIRVRPPRLPRPRPRPWMVPRP | -0.208
56 | RRIRVRPPRLPRPRPRPWNDPRP | -0.0722
57 | RRIRVRPPRLPRPRPRPWNRPRP | -0.183
58 | RRIRVRPPRLPRPRPRPWQHPRP | 0.0882
59 | RRIRVRPPRLPRPRPRPWQMPRP | -0.00669
60 | RRIRVRPPRLPRPRPRPWQNPRP | 0.013
61 | RRIRVRPPRLPRPRPRPWQPPRP | 0.146
62 | RRIRVRPPRLPRPRPRPWQYPRP | -0.0599
63 | RRIRVRPPRLPRPRPRPWRIPRP | -0.00931
64 | RRIRVRPPRLPRPRPRPWRKPRP | 0.0283
65 | RRIRVRPPRLPRPRPRPWRWPRP | 0.48
66 | RRIRVRPPRLPRPRPRPWRYPRP | 0.0359
67 | RRIRVRPPRLPRPRPRPWSCPRP | -0.155
68 | RRIRVRPPRLPRPRPRPWVCPRP | 0.133
69 | RRIRVRPPRLPRPRPRPWVSPRP | -0.278
70 | RRIRVRPPRLPRPRPRPWWIPRP | -0.202
71 | RRIRVRPPRLPRPRPRPWYMPRP | -0.132
72 | RRIRVRPPRLPRPRPRPWYRPRP | -0.39
73 | RRIRVRPPRLPRPRPRPYAEPRP | -0.0642
74 | RRIRVRPPRLPRPRPRPYAKPRP | -0.0931
75 | RRIRVRPPRLPRPRPRPYDRPRP | -0.00895

Row | Sequence | shrunken log2 fold change
76 | RRIRVRPPRLPRPRPRPYEKPRP | -0.293
77 | RRIRVRPPRLPRPRPRPYERPRP | 0.0458
78 | RRIRVRPPRLPRPRPRPYEYPRP | -0.137
79 | RRIRVRPPRLPRPRPRPYFDPRP | -0.609
80 | RRIRVRPPRLPRPRPRPYFFPRP | -0.512
81 | RRIRVRPPRLPRPRPRPYGMPRP | -0.0584
82 | RRIRVRPPRLPRPRPRPYIKPRP | -0.982
83 | RRIRVRPPRLPRPRPRPYIVPRP | -0.00649
84 | RRIRVRPPRLPRPRPRPYIYPRP | -0.806
85 | RRIRVRPPRLPRPRPRPYKNPRP | -0.848
86 | RRIRVRPPRLPRPRPRPYLCPRP | 0.0235
87 | RRIRVRPPRLPRPRPRPYLGPRP | -0.177
88 | RRIRVRPPRLPRPRPRPYLLPRP | -0.357
89 | RRIRVRPPRLPRPRPRPYLVPRP | -0.511
90 | RRIRVRPPRLPRPRPRPYMIPRP | -0.904
91 | RRIRVRPPRLPRPRPRPYMNPRP | -0.962
92 | RRIRVRPPRLPRPRPRPYNAPRP | -0.521
93 | RRIRVRPPRLPRPRPRPYNDPRP | -0.609
94 | RRIRVRPPRLPRPRPRPYNLPRP | -0.414
95 | RRIRVRPPRLPRPRPRPYNYPRP | -0.845
96 | RRIRVRPPRLPRPRPRPYPAPRP | -0.715
97 | RRIRVRPPRLPRPRPRPYPTPRP | -0.398
98 | RRIRVRPPRLPRPRPRPYRCPRP | -0.0108
99 | RRIRVRPPRLPRPRPRPYRHPRP | -1.08
100 | RRIRVRPPRLPRPRPRPYRMPRP | -0.467

Row | Sequence | shrunken log2 fold change
101 | RRIRVRPPRLPRPRPRPYSWPRP | -0.163
102 | RRIRVRPPRLPRPRPRPYTSPRP | -0.0679
103 | RRIRVRPPRLPRPRPRPYVRPRP | -0.492
104 | RRIRVRPPRLPRPRPRPYWKPRP | -0.074
105 | RRIRVRPPRLPRPRPRPYWQPRP | -0.0663
106 | RRIRVRPPRLPRPRPRPYYAPRP | -0.915
107 | RRIRWRPPRLPRPRPRPACHPRP | 0.442
108 | RRIRWRPPRLPRPRPRPACPPRP | 0.105
109 | RRIRWRPPRLPRPRPRPADHPRP | 0.193
110 | RRIRWRPPRLPRPRPRPADKPRP | 0.141
111 | RRIRWRPPRLPRPRPRPAENPRP | 0.568
112 | RRIRWRPPRLPRPRPRPAFNPRP | -0.116
113 | RRIRWRPPRLPRPRPRPAFWPRP | 0.708
114 | RRIRWRPPRLPRPRPRPAGNPRP | 0.396
115 | RRIRWRPPRLPRPRPRPAHDPRP | 0.0987
116 | RRIRWRPPRLPRPRPRPAHFPRP | 0.141
117 | RRIRWRPPRLPRPRPRPAHIPRP | -0.0509
118 | RRIRWRPPRLPRPRPRPAHLPRP | 0.15
119 | RRIRWRPPRLPRPRPRPAHQPRP | 0.176
120 | RRIRWRPPRLPRPRPRPAHYPRP | -0.145
121 | RRIRWRPPRLPRPRPRPAIEPRP | -0.04
122 | RRIRWRPPRLPRPRPRPAIIPRP | -0.296
123 | RRIRWRPPRLPRPRPRPAIKPRP | 0.0964
124 | RRIRWRPPRLPRPRPRPAILPRP | 0.0915
125 | RRIRWRPPRLPRPRPRPAKKPRP | 0.0808

Row | Sequence | shrunken log2 fold change
126 | RRIRWRPPRLPRPRPRPAKWPRP | 0.386
127 | RRIRWRPPRLPRPRPRPAMWPRP | 0.433
128 | RRIRWRPPRLPRPRPRPANKPRP | -0.348
129 | RRIRWRPPRLPRPRPRPAPIPRP | 0.319
130 | RRIRWRPPRLPRPRPRPAPNPRP | 3.12
131 | RRIRWRPPRLPRPRPRPAQFPRP | 0.248
132 | RRIRWRPPRLPRPRPRPAQQPRP | -0.00145
133 | RRIRWRPPRLPRPRPRPATGPRP | 0.0426
134 | RRIRWRPPRLPRPRPRPATYPRP | 0.0311
135 | RRIRWRPPRLPRPRPRPAVRPRP | -0.0873
136 | RRIRWRPPRLPRPRPRPAWEPRP | 0.534
137 | RRIRWRPPRLPRPRPRPAYHPRP | -0.361
138 | RRIRWRPPRLPRPRPRPCAFPRP | 0.176
139 | RRIRWRPPRLPRPRPRPCCLPRP | 0.00932
140 | RRIRWRPPRLPRPRPRPCDLPRP | -0.286
141 | RRIRWRPPRLPRPRPRPCEMPRP | 0.0732
142 | RRIRWRPPRLPRPRPRPCFDPRP | 0.172
143 | RRIRWRPPRLPRPRPRPCFEPRP | -0.0254
144 | RRIRWRPPRLPRPRPRPCHSPRP | -0.286
145 | RRIRWRPPRLPRPRPRPCHYPRP | -0.0893
146 | RRIRWRPPRLPRPRPRPCIRPRP | -0.147
147 | RRIRWRPPRLPRPRPRPCLHPRP | -0.01
148 | RRIRWRPPRLPRPRPRPCLKPRP | 0.0308
149 | RRIRWRPPRLPRPRPRPCMQPRP | 0.0574
150 | RRIRWRPPRLPRPRPRPCMTPRP | 0.317
